Measurements published in publication PMC7545097, “Mapping the native interaction surfaces of PREP1 with PBX1 by cross-linking mass-spectrometry and mutagenesis” (Scientific Reports, 2020).

T1: PREP1_(1-436), wild-type recombinant (TR-FIA) (UniProt P55347 1-436)
T1 construct: also called wild-type PREP1; PKNOX1; source: E. coli, purified
T1 sequence (looked up): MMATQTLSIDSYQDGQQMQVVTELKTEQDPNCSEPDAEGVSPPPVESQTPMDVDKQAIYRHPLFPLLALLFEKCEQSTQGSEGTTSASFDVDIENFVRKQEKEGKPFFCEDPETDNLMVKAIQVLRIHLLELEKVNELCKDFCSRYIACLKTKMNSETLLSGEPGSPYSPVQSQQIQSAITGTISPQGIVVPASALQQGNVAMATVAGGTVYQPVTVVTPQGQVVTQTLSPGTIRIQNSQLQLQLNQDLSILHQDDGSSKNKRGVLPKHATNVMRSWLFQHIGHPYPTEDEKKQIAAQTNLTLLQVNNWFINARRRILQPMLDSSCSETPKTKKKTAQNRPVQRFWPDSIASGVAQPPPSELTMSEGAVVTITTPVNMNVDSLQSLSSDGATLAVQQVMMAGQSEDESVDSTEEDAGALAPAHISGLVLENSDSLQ


Biological target: T1, PREP1_(1-436), wild-type recombinant …
Test: time-resolved fluorescence immunoassay (TR-FIA); plate coated with monoclonal anti-PBX1; PBX1 pre-incubated with PREP1 or MEIS1 for 1 h on ice, 10 µg/mL in 1% BSA PBS, 1 h at room temperature on the plate; detected with anti-PREP1 or biotinylated anti-MEIS1/2 and Eu^3+ conjugates; normalised to the wild-type protein taken as 1
Settings: both partners purified

| Binder | binding result |
| --- | --- |
| PBX1 I84A (natural protein, human, UniProt P40424 1-430, looked up, PBX1, residues 1-430; source: E. coli, purified) MDEQPRLMHSHAGVGMAGHPGLSQHLQDGAGGTEGEGGRKQDIGDILQQIMTITDQSLDEAQARKHALNCHRMKPALFNVLCEAKEKTVLSIRGAQEEEPTDPQLMRLDNMLLAEGVAGPEKGGGSAAAAAAAAASGGAGSDNSVEHSDYRAKLSQIRQIYHTELEKYEQACNEFTTHVMNLLREQSRTRPISPKEIERMVSIIHRKFSSIQMQLKQSTCEAVMILRSRFLDARRKRRNFNKQATEILNEYFYSHLSNPYPSEEAKEELAKKCGITVSQVSNWFGNKRIRYKKNIGKFQEEANIYAAKTAVTATNVSAHGSQANSPSTPNSAGSSSSFNMSNSGDLFMSVQSLNGDSYQGAQVGANVQSQVDTLRHVISQTGGYSDGLAASQMYSPQGISANGGWQDATTPSSVTSPTEGPGSVHSDTSN | binds |
| PBX1 L105A/L108A (natural protein, human, UniProt P40424 1-430, looked up, PBX1, residues 1-430; source: E. coli, purified) MDEQPRLMHSHAGVGMAGHPGLSQHLQDGAGGTEGEGGRKQDIGDILQQIMTITDQSLDEAQARKHALNCHRMKPALFNVLCEIKEKTVLSIRGAQEEEPTDPQAMRADNMLLAEGVAGPEKGGGSAAAAAAAAASGGAGSDNSVEHSDYRAKLSQIRQIYHTELEKYEQACNEFTTHVMNLLREQSRTRPISPKEIERMVSIIHRKFSSIQMQLKQSTCEAVMILRSRFLDARRKRRNFNKQATEILNEYFYSHLSNPYPSEEAKEELAKKCGITVSQVSNWFGNKRIRYKKNIGKFQEEANIYAAKTAVTATNVSAHGSQANSPSTPNSAGSSSSFNMSNSGDLFMSVQSLNGDSYQGAQVGANVQSQVDTLRHVISQTGGYSDGLAASQMYSPQGISANGGWQDATTPSSVTSPTEGPGSVHSDTSN | binds |
| PBX1 V80A/L81A (natural protein, human, UniProt P40424 1-430, looked up, PBX1, residues 1-430; source: E. coli, purified) MDEQPRLMHSHAGVGMAGHPGLSQHLQDGAGGTEGEGGRKQDIGDILQQIMTITDQSLDEAQARKHALNCHRMKPALFNAACEIKEKTVLSIRGAQEEEPTDPQLMRLDNMLLAEGVAGPEKGGGSAAAAAAAAASGGAGSDNSVEHSDYRAKLSQIRQIYHTELEKYEQACNEFTTHVMNLLREQSRTRPISPKEIERMVSIIHRKFSSIQMQLKQSTCEAVMILRSRFLDARRKRRNFNKQATEILNEYFYSHLSNPYPSEEAKEELAKKCGITVSQVSNWFGNKRIRYKKNIGKFQEEANIYAAKTAVTATNVSAHGSQANSPSTPNSAGSSSSFNMSNSGDLFMSVQSLNGDSYQGAQVGANVQSQVDTLRHVISQTGGYSDGLAASQMYSPQGISANGGWQDATTPSSVTSPTEGPGSVHSDTSN | binds |
| PBX1 L105A/L108A/L112A (natural protein, human, UniProt P40424 1-430, looked up, PBX1, residues 1-430; source: E. coli, purified) MDEQPRLMHSHAGVGMAGHPGLSQHLQDGAGGTEGEGGRKQDIGDILQQIMTITDQSLDEAQARKHALNCHRMKPALFNVLCEIKEKTVLSIRGAQEEEPTDPQAMRADNMALAEGVAGPEKGGGSAAAAAAAAASGGAGSDNSVEHSDYRAKLSQIRQIYHTELEKYEQACNEFTTHVMNLLREQSRTRPISPKEIERMVSIIHRKFSSIQMQLKQSTCEAVMILRSRFLDARRKRRNFNKQATEILNEYFYSHLSNPYPSEEAKEELAKKCGITVSQVSNWFGNKRIRYKKNIGKFQEEANIYAAKTAVTATNVSAHGSQANSPSTPNSAGSSSSFNMSNSGDLFMSVQSLNGDSYQGAQVGANVQSQVDTLRHVISQTGGYSDGLAASQMYSPQGISANGGWQDATTPSSVTSPTEGPGSVHSDTSN | binds |
| PBX1 V80A (natural protein, human, UniProt P40424 1-430, looked up, PBX1, residues 1-430; source: E. coli, purified) MDEQPRLMHSHAGVGMAGHPGLSQHLQDGAGGTEGEGGRKQDIGDILQQIMTITDQSLDEAQARKHALNCHRMKPALFNALCEIKEKTVLSIRGAQEEEPTDPQLMRLDNMLLAEGVAGPEKGGGSAAAAAAAAASGGAGSDNSVEHSDYRAKLSQIRQIYHTELEKYEQACNEFTTHVMNLLREQSRTRPISPKEIERMVSIIHRKFSSIQMQLKQSTCEAVMILRSRFLDARRKRRNFNKQATEILNEYFYSHLSNPYPSEEAKEELAKKCGITVSQVSNWFGNKRIRYKKNIGKFQEEANIYAAKTAVTATNVSAHGSQANSPSTPNSAGSSSSFNMSNSGDLFMSVQSLNGDSYQGAQVGANVQSQVDTLRHVISQTGGYSDGLAASQMYSPQGISANGGWQDATTPSSVTSPTEGPGSVHSDTSN | binds |
| PBX1 L77A/I84A (natural protein, human, UniProt P40424 1-430, looked up, PBX1, residues 1-430; source: E. coli, purified) MDEQPRLMHSHAGVGMAGHPGLSQHLQDGAGGTEGEGGRKQDIGDILQQIMTITDQSLDEAQARKHALNCHRMKPAAFNVLCEAKEKTVLSIRGAQEEEPTDPQLMRLDNMLLAEGVAGPEKGGGSAAAAAAAAASGGAGSDNSVEHSDYRAKLSQIRQIYHTELEKYEQACNEFTTHVMNLLREQSRTRPISPKEIERMVSIIHRKFSSIQMQLKQSTCEAVMILRSRFLDARRKRRNFNKQATEILNEYFYSHLSNPYPSEEAKEELAKKCGITVSQVSNWFGNKRIRYKKNIGKFQEEANIYAAKTAVTATNVSAHGSQANSPSTPNSAGSSSSFNMSNSGDLFMSVQSLNGDSYQGAQVGANVQSQVDTLRHVISQTGGYSDGLAASQMYSPQGISANGGWQDATTPSSVTSPTEGPGSVHSDTSN | binds |

More lines, now with the values ahead:

| binding result | Binder |
| --- | --- |
| binds | PBX1 L112A (natural protein, human, UniProt P40424 1-430, looked up, PBX1, residues 1-430; single alanine substitution; source: E. coli, purified) MDEQPRLMHSHAGVGMAGHPGLSQHLQDGAGGTEGEGGRKQDIGDILQQIMTITDQSLDEAQARKHALNCHRMKPALFNVLCEIKEKTVLSIRGAQEEEPTDPQLMRLDNMALAEGVAGPEKGGGSAAAAAAAAASGGAGSDNSVEHSDYRAKLSQIRQIYHTELEKYEQACNEFTTHVMNLLREQSRTRPISPKEIERMVSIIHRKFSSIQMQLKQSTCEAVMILRSRFLDARRKRRNFNKQATEILNEYFYSHLSNPYPSEEAKEELAKKCGITVSQVSNWFGNKRIRYKKNIGKFQEEANIYAAKTAVTATNVSAHGSQANSPSTPNSAGSSSSFNMSNSGDLFMSVQSLNGDSYQGAQVGANVQSQVDTLRHVISQTGGYSDGLAASQMYSPQGISANGGWQDATTPSSVTSPTEGPGSVHSDTSN |
| binds | PBX1 L77A/V80A/L81A (natural protein, human, UniProt P40424 1-430, looked up, PBX1, residues 1-430; source: E. coli, purified) MDEQPRLMHSHAGVGMAGHPGLSQHLQDGAGGTEGEGGRKQDIGDILQQIMTITDQSLDEAQARKHALNCHRMKPAAFNAACEIKEKTVLSIRGAQEEEPTDPQLMRLDNMLLAEGVAGPEKGGGSAAAAAAAAASGGAGSDNSVEHSDYRAKLSQIRQIYHTELEKYEQACNEFTTHVMNLLREQSRTRPISPKEIERMVSIIHRKFSSIQMQLKQSTCEAVMILRSRFLDARRKRRNFNKQATEILNEYFYSHLSNPYPSEEAKEELAKKCGITVSQVSNWFGNKRIRYKKNIGKFQEEANIYAAKTAVTATNVSAHGSQANSPSTPNSAGSSSSFNMSNSGDLFMSVQSLNGDSYQGAQVGANVQSQVDTLRHVISQTGGYSDGLAASQMYSPQGISANGGWQDATTPSSVTSPTEGPGSVHSDTSN |
| binds | PBX1 L77A/V80A (natural protein, human, UniProt P40424 1-430, looked up, PBX1, residues 1-430; source: E. coli, purified) MDEQPRLMHSHAGVGMAGHPGLSQHLQDGAGGTEGEGGRKQDIGDILQQIMTITDQSLDEAQARKHALNCHRMKPAAFNALCEIKEKTVLSIRGAQEEEPTDPQLMRLDNMLLAEGVAGPEKGGGSAAAAAAAAASGGAGSDNSVEHSDYRAKLSQIRQIYHTELEKYEQACNEFTTHVMNLLREQSRTRPISPKEIERMVSIIHRKFSSIQMQLKQSTCEAVMILRSRFLDARRKRRNFNKQATEILNEYFYSHLSNPYPSEEAKEELAKKCGITVSQVSNWFGNKRIRYKKNIGKFQEEANIYAAKTAVTATNVSAHGSQANSPSTPNSAGSSSSFNMSNSGDLFMSVQSLNGDSYQGAQVGANVQSQVDTLRHVISQTGGYSDGLAASQMYSPQGISANGGWQDATTPSSVTSPTEGPGSVHSDTSN |
| binds | PBX1 L105A (natural protein, human, UniProt P40424 1-430, looked up, PBX1, residues 1-430; single alanine substitution; source: E. coli, purified) MDEQPRLMHSHAGVGMAGHPGLSQHLQDGAGGTEGEGGRKQDIGDILQQIMTITDQSLDEAQARKHALNCHRMKPALFNVLCEIKEKTVLSIRGAQEEEPTDPQAMRLDNMLLAEGVAGPEKGGGSAAAAAAAAASGGAGSDNSVEHSDYRAKLSQIRQIYHTELEKYEQACNEFTTHVMNLLREQSRTRPISPKEIERMVSIIHRKFSSIQMQLKQSTCEAVMILRSRFLDARRKRRNFNKQATEILNEYFYSHLSNPYPSEEAKEELAKKCGITVSQVSNWFGNKRIRYKKNIGKFQEEANIYAAKTAVTATNVSAHGSQANSPSTPNSAGSSSSFNMSNSGDLFMSVQSLNGDSYQGAQVGANVQSQVDTLRHVISQTGGYSDGLAASQMYSPQGISANGGWQDATTPSSVTSPTEGPGSVHSDTSN |
| binds | PBX1 L81A (natural protein, human, UniProt P40424 1-430, looked up, PBX1, residues 1-430; source: E. coli, purified) MDEQPRLMHSHAGVGMAGHPGLSQHLQDGAGGTEGEGGRKQDIGDILQQIMTITDQSLDEAQARKHALNCHRMKPALFNVACEIKEKTVLSIRGAQEEEPTDPQLMRLDNMLLAEGVAGPEKGGGSAAAAAAAAASGGAGSDNSVEHSDYRAKLSQIRQIYHTELEKYEQACNEFTTHVMNLLREQSRTRPISPKEIERMVSIIHRKFSSIQMQLKQSTCEAVMILRSRFLDARRKRRNFNKQATEILNEYFYSHLSNPYPSEEAKEELAKKCGITVSQVSNWFGNKRIRYKKNIGKFQEEANIYAAKTAVTATNVSAHGSQANSPSTPNSAGSSSSFNMSNSGDLFMSVQSLNGDSYQGAQVGANVQSQVDTLRHVISQTGGYSDGLAASQMYSPQGISANGGWQDATTPSSVTSPTEGPGSVHSDTSN |
| binds | PBX1 L108A (natural protein, human, UniProt P40424 1-430, looked up, PBX1, residues 1-430; single alanine substitution; source: E. coli, purified) MDEQPRLMHSHAGVGMAGHPGLSQHLQDGAGGTEGEGGRKQDIGDILQQIMTITDQSLDEAQARKHALNCHRMKPALFNVLCEIKEKTVLSIRGAQEEEPTDPQLMRADNMLLAEGVAGPEKGGGSAAAAAAAAASGGAGSDNSVEHSDYRAKLSQIRQIYHTELEKYEQACNEFTTHVMNLLREQSRTRPISPKEIERMVSIIHRKFSSIQMQLKQSTCEAVMILRSRFLDARRKRRNFNKQATEILNEYFYSHLSNPYPSEEAKEELAKKCGITVSQVSNWFGNKRIRYKKNIGKFQEEANIYAAKTAVTATNVSAHGSQANSPSTPNSAGSSSSFNMSNSGDLFMSVQSLNGDSYQGAQVGANVQSQVDTLRHVISQTGGYSDGLAASQMYSPQGISANGGWQDATTPSSVTSPTEGPGSVHSDTSN |
